Source: patent US20230190652A1, “COMPOSITION FOR THE TREATMENT OF COVID-19 AND TREATMENT METHOD” (priority 2020, published 2023)

Test system: COVID-19
Assay: Intubated hospitalized critically ill COVID-19 patients
Type: in vivo, human
Conditions: patients in a critical condition with cytokine storm

B1: lactoferrin (protein, UniProt P24627 20-708, looked up)
Lactotransferrin: APRKNVRWCTISQPEWFKCRRWQWRMKKLGAPSITCVRRAFALECIRAIAEKKADAVTLDGGMVFEAGRDPYKLRPVAAEIYGTKESPQTHYYAVAVVKKGSNFQLDQLQGRKSCHTGLGRSAGWIIPMGILRPYLSWTESLEPLQGAVAKFFSASCVPCIDRQAYPNLCQLCKGEGENQCACSSREPYFGYSGAFKCLQDGAGDVAFVKETTVFENLPEKADRDQYELLCLNNSRAPVDAFKECHLAQVPSHAVVARSVDGKEDLIWKLLSKAQEKFGKNKSRSFQLFGSPPGQRDLLFKDSALGFLRIPSKVDSALYLGSRYLTTLKNLRETAEEVKARYTRVVWCAVGPEEQKKCQQWSQQSGQNVTCATASTTDDCIVLVLKGEADALNLDGGYIYTAGKCGLVPVLAENRKSSKHSSLDCVLRPTEGYLAVAVVKKANEGLTWNSLKDKKSCHTAVDRTAGWNIPMGLIVNQTGSCAFDEFFSQSCAPGADPKSRLCALCAGDDQGLDKCVPNSKEKYYGYTGAFRCLAEDVGDVAFVKNDTVWENTNGESTADWAKNLNREDFRLLCLDGTRKPVTEAQSCHLAVAPNHAVVSRSDRAAHVKQVLLHQQALFGKNGKNCPDKFCLFKSETKNLLFNDNTECLAKLGGRPTYEEYLGTEYVTAIANLKKCSTSPLLEACAFLTR
notes: bovine LF used
- IL-6, TNF alpha, ferritin and DD2 parameters: normalizing or decreasing
